Assay [1] concerns the target T1, human CD28 on human T cells (human, UniProt P10747 19-152). Description: cell-based or functional assay.
Assay [2] deals with T2, cynomolgus CD28 on cynomolgus T cells (cynomolgus monkey, UniProt Q0PDN3 19-220).
T2 construct: whole, on cells
Description: flow cytometry, cynomolgus CD4+ T cells. On the technique in general: In flow cytometry, cells or beads pass a laser one at a time.
Description: (§1) After incubation, the cells were washed twice with cold PBS containing 1% filtered FBS and a PE-conjugated or Alexa647-conjugated anti-human secondary antibody was added to the MUC16 expressing cells or Human/Cyno T cells, respectively, and incubated for an additional 30 minutes. Live/dead dye was added to Human and Cynomolgus T cells incubations. Wells containing no antibody or secondary only were used as a control.
(§2) After incubation with Human or Cynomolgus T cells, cells were washed, and stained with a cocktail of anti-CD2, ant-CD16, anti-CD4, and anti-CD8 antibodies in Brilliant Stain Buffer for an extra 20 min incubation at 4° C. After wash, cells were re-suspended in 200 μL cold PBS containing 1% filtered FBS, gated in a Live/CD2+/CD4+/CD16− or Live/CD2+/CD8+/CD16− gate and analyzed by Flow cytometry on a BD FACS LSR-Fortessa-X20.

In a further assay the target is T3, hCD28.mmh (human).
T3 construct: also called hCD28 with C-term myc-myc-6xHis tag; human CD28 ecto domain (N19-P152) having a myc-myc-his tag
Description: SPR (Biacore), 37 C, antibody captured by anti-human Fc, hCD28.mmh injected. (Surface plasmon resonance follows binding to a sensor surface in real time, without labels.)

For assay [3], the target named is T1, human CD28 on human T cells. Description: flow cytometry, human CD4+ T cells.
Description: as §1, §2
Assay [4] has the same target. Description: cell-based or functional assay. The source holds these as a separate data set.
A further assay concerns the target T4, hMUC16.mmh (human).
T4 construct: also called hMUC16 with C-term myc-myc-6xHis tag; human MUC16 membrane proximal domain (P13810-P14451) having a myc-myc-his tag
T4 chain: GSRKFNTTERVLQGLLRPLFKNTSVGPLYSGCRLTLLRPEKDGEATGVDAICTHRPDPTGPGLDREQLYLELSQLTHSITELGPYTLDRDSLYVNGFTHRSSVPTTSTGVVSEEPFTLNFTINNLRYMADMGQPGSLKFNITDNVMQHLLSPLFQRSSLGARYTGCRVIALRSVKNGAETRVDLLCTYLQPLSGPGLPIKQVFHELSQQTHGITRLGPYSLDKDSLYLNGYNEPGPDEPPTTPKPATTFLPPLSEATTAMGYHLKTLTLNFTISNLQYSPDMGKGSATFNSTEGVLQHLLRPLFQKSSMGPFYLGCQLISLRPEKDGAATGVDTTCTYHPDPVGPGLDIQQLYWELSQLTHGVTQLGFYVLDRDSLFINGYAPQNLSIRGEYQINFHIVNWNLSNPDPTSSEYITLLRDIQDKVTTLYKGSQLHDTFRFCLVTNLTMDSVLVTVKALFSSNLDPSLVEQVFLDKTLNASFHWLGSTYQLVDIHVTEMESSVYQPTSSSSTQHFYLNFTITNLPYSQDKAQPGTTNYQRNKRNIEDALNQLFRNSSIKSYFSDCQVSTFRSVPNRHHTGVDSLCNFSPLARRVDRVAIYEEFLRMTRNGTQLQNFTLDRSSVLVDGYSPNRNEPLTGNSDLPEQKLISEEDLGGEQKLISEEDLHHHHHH
Description: SPR (Biacore), 37 C, antibody captured by anti-human Fc, hMUC16.mmh injected.

The target of assay [5] is T1, human CD28 on human T cells. Description: flow cytometry, human CD8+ T cells.
Description: as §1, §2
Assay [6] concerns the target T2, cynomolgus CD28 on cynomolgus T cells. Description: flow cytometry, cynomolgus CD8+ T cells.
Description: as §1, §2

Values joined by “and” are separate entries in the source; they are usually repeats but may differ in a detail not shown here. Identical values can stand only once.

Description for hCD28.mmh: (§3) The dissociation of bound hMUC16, hCD28, and mCD28 reagents was monitored for 10 minutes in HBS-ET running buffer. Association (kₐ) and dissociation (kd) rate constants were determined by fitting the real-time binding sensorgrams to a 1:1 binding model with mass transport limitation using Scrubber evaluation software version 2.0c. Binding dissociation equilibrium constants (KD) and dissociative half-lives (t½) were calculated from the kinetic rate constants as:
Description for hMUC16.mmh: as §3

B1: bs24963D (bispecific antibody, IgG4, V domains shown)
VH 1: QVQLQESGPGLVKPSETLSLTCTVSGGSISSYYWSWIRQPPGKGLEWIGYIYYSGITHYNPSLKSRVTISVDTSKIQFSLKLSSVTAADTAVYYCARWGVRRDYYYYGMDVWGQGTTVTVSS
VH 2: EVQLVESGGGLEQPGRSLRLSCTASGFAFGDHTMSWVRQAPGKGLEWVGFIRSRAYGGTTEYAASVKGRFTISRDDSKSIAYLQMDSLKTEDTAVYYCTSGGYDSSLHYYYYYHGMDVWGRGTTVTVSS
VL: not shown
notes: Two different heavy chains pair with a common light chain; also called REGN5668; anti-MUC16xCD28
In the case of B1, in assay [1], the “IL-2 release from primary human CD4+ T cells, EC50, OVCAR3 target cells, 5 nM REGN4018” value is 0.401 nM; the “IL-2 release from primary human CD4+ T cells, EC50, PEO-1 target cells, 5 nM REGN4018” value was determined as 0.996 nM; the “IL-2 release from primary human CD4+ T cells, fold induction, OVCAR3 target cells, 5 nM REGN4018” value was 5.32 fold; the “IL-2 release from primary human CD4+ T cells, fold induction, PEO-1 target cells, 5 nM REGN4018” value is 10.9 fold. In assay [2], the concentration for a half-maximal effect (EC50) was 203 nM. In addition, in the assay with hCD28.mmh, the Kd amounted to 165 nM, the T½ amounted to 2.1 min, the koff is 0.00538 s⁻¹ and the kon was determined as 32700 M⁻¹ s⁻¹. In assay [3], this molecule came in with an EC50 of 261 nM. For the same molecule, in assay [4], the “IL-2 release from primary human CD4+ T cells, fold induction, OVCAR3 target cells, 5 nM hIgG4 isotype control” value came out at 1.33 fold and the “IL-2 release from primary human CD4+ T cells, fold induction, PEO-1 target cells, 5 nM hIgG4 isotype control” value was 1.12 fold. In the assay with hMUC16.mmh, the Kd was 0.933 nM and 0.912 nM; the T½ is 53.1 min and 28 min; the koff was 0.000412 s⁻¹ and 0.000218 s⁻¹; the kon was 441000 M⁻¹ s⁻¹ and 238000 M⁻¹ s⁻¹. The molecule also gave an EC50 in assay [5] of 253 nM. Further, in assay [6], the EC50 amounted to 122 nM.

B2: Parental 2 hCD28 (for bs24963D) (antibody, V domains shown)
VH: B1 VH 1
VL: not shown
With B2, in assay [1], the “IL-2 release from primary human CD4+ T cells, EC50, PEO-1 target cells, 5 nM REGN4018” value amounted to 0.107 nM; the “IL-2 release from primary human CD4+ T cells, fold induction, OVCAR3 target cells, 5 nM REGN4018” value stood at 2.46 fold; the “IL-2 release from primary human CD4+ T cells, fold induction, PEO-1 target cells, 5 nM REGN4018” value came out at 2.05 fold. In addition, in assay [4], the “IL-2 release from primary human CD4+ T cells, fold induction, OVCAR3 target cells, 5 nM hIgG4 isotype control” value was 1.12 fold and the “IL-2 release from primary human CD4+ T cells, fold induction, PEO-1 target cells, 5 nM hIgG4 isotype control” value was determined as 1.03 fold.

B3: bs32897D (bispecific antibody, V domains shown)
VH 1: EVQLVESGGGLVQPGGSLRLSCAASGFTFSRNNMHWVRQAPGKGLEYVSGISSNGGRTYYADSVKGRFTISRDNSKNTLYLQMGGLRAADMAVYFCTRDDELLSFDYWGQGTLVTVSS
VH 2: QVQLVESGGGLVKPGGSLRLSCAASGFTFRDYSMSWIRQAPGKGLEWVSYVTFFNSAIYYADSVKGRFTISRDNAKNSLYLQMNSLRAEDTAVYYCAREREPIVGGFDYWGQGTLVTVSS
VL: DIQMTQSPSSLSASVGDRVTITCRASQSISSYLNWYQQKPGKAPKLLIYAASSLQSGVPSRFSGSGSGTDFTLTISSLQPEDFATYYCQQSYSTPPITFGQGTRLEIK
notes: also called anti-MUC16xCD28
Regarding B3, in assay [1], the “IL-2 release from primary human CD4+ T cells, EC50, OVCAR3 target cells, 5 nM REGN4018” value was 0.607 nM; the “IL-2 release from primary human CD4+ T cells, fold induction, OVCAR3 target cells, 5 nM REGN4018” value was found to be 5.63 fold; the “IL-2 release from primary human CD4+ T cells, fold induction, PEO-1 target cells, 5 nM REGN4018” value was 5.22 fold. Further, in assay [2], it took 5700 nM to reach a half-maximal effect (EC50). Also, the EC50 in assay [3] was found to be 9160 nM. Also, in assay [4], the “IL-2 release from primary human CD4+ T cells, fold induction, OVCAR3 target cells, 5 nM hIgG4 isotype control” value turned out to be 1.06 fold and the “IL-2 release from primary human CD4+ T cells, fold induction, PEO-1 target cells, 5 nM hIgG4 isotype control” value worked out at 1.12 fold. The molecule further gave an EC50 in assay [5] of 7580 nM. The EC50 in assay [6] stood at 3020 nM.

B4: Parental 1 hCD28 (for bs32897D) (antibody, V domains shown)
VH: B3 VH 1
VL: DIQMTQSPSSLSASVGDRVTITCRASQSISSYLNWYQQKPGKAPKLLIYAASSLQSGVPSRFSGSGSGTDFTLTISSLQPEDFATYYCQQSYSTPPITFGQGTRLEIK
Consider B4, for which, in assay [1], the “IL-2 release from primary human CD4+ T cells, fold induction, OVCAR3 target cells, 5 nM REGN4018” value worked out at 1.58 fold and the “IL-2 release from primary human CD4+ T cells, fold induction, PEO-1 target cells, 5 nM REGN4018” value was found to be 1.42 fold. In assay [4], the “IL-2 release from primary human CD4+ T cells, fold induction, OVCAR3 target cells, 5 nM hIgG4 isotype control” value was determined as 1.1 fold and the “IL-2 release from primary human CD4+ T cells, fold induction, PEO-1 target cells, 5 nM hIgG4 isotype control” value amounted to 1.3 fold.

As a reminder, the EC50 is the concentration at which the effect is half-maximal. Read a low EC50 as a more potent agent. Broadly, the Kd is the concentration at which binding is half-saturated. Read a low Kd as tighter binding. In general, koff refers to the first-order rate constant of dissociation. Low values mean a long-lived complex, high ones a short-lived complex. One may read the kon as the second-order rate constant of association. A high value points to fast association.

Values taken from patent publication US20200199233A1 (Regeneron, published 2020).
